The record followed here is patent publication US7829301B2, “Screening assays for binding antagonists of the AMD-associated variant of factor H (H384)” (The University of Manchester, priority 2006, dated 2010).

Experiment [1] is described as follows: Microtitre plate assay: biotinylated proteins binding to immobilized heparin oligosaccharides of defined length. An excerpt:
FIG. 10: Comparisons of the interactions of FHCCP6-8(H384) and the corresponding Y384 variant with heparin oligomers of different lengths. The binding of biotinylated-FHCCP6-8(H384) (black bars) or biotinylated-FHCCP6-8(Y384) (grey bars) to heparin oligosaccharides (dp4 to dp18) immobilized on microtitre plates plasma polymerized with allylamine. All values are plotted as mean absorbance values (n=8)±S.E.
(§1) The heparin/HS/DS-binding activities of the FHCCP6-8(H384) and FHCCP6-8(Y384) variants (using biotinylated-FHCCP6-8 constructs), and in some cases full-length Factor H (detected with an antibody), were compared using an assay where the glycosaminoglycans (GAGs) were immobilized on allylamine-coated EpranEx plates (Mahoney et al (2004) Anal. Biochem. 330, 123-129), kindly supplied by Plasso Technology Ltd., Sheffield, UK. Previously, we have shown that heparin/HS can bind non-covalently to surfaces plasma polymerized with allylamine in such a way that these GAGs can still associate with a wide-range of proteins (Mahoney et al. (2005) J. Biol. Chem. 280, 27044-27055; Mahoney et al. (2004) ibid).
(§2) In the case of the biotinylated FHCCP6-8(H384) and FHCCP6-8(Y384) constructs, bound material was detected by adding 200 μl/well of a 1:10,000 dilution of ExtrAvidin alkaline phosphatase (Sigma, Cat. No. E-2636) for 30 minutes. […]

The nature of experiment [2]: Microtitre plate assay: binding to HSI and HSII immobilized on EpranEx plate. Also noted: species or system pig. The note with it: HS immobilized on allylamine-coated EpranEx plate.
Source text: as §1
The following GAG preparations were analyzed: unfractionated heparins corresponding to the 2nd, 4th and 5th International Standards (denoted here as 2IS, 4IS and 5IS, respectively (Mulloy et al. (2000) Thromb. Haemost. 52, 148-153)); enoxaparin, dalteparin and LMr heparin from Sigma (Cat. No. H3400); selectively desulfated heparins prepared from 2IS heparin as described in Mulloy et al. (1994) Carbohydr. […]
as §2

Experiment [3] concerns the target T1, CRP (Homo sapiens, UniProt P02741).
T1 construct: purchased Calbiochem
T1 sequence (P02741 19-224): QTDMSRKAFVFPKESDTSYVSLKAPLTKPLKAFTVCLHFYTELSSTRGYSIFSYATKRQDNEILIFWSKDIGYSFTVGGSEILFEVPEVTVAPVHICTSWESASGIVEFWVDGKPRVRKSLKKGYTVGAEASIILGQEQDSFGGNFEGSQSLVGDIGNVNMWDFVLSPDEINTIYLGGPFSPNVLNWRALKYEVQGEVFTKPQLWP
Kind of experiment: Protein/protein binding assay with coated CRP. How it is done:
FMOD was isolated from bovine articular cartilage (Heinghrd et al., (1986) J. Biol. Chem. 261, 13866-13872) and recombinant CRP was obtained from Calbiochem. Deglycosylated FMOD was prepared by treatment with N-glycosiadase F (Roche Applied Science) as previously described (Sjöberg et al. (2005) J. Biol. Chem. 280, 32301-32308).
CRP or FMOD was coated overnight at 4° C. onto microtiter plates (Maxisorp, Nunc) at a concentration of 10 μg/ml in 75 mM sodium carbonate buffer, pH 9.6. Wells treated only with coating buffer or 1% (w/v) BSA (Sigma) in coating buffer (for the assays involving FMOD) were used as negative controls. Between each step the wells were washed extensively with 50 mM Tris-HCl, 150 mM NaCl, 0.1% (v/v) Tween 20, pH 7.5. All wells were blocked with 1% (w/v) BSA (Sigma) in phosphate buffered saline (Invitrogen) for 1 hour at 37° C. […] The amount of bound protein was assessed using a goat polyclonal anti-FH antibody (Quidel, Cat # A312) followed by HRP-labeled anti-goat secondary antibodies (Dako) and the OPD development kit (Dako). Detection of biotinylated protein was performed using a StreptABComplex/HRP-kit from Dako, and in both cases the absorbance at 490 nm was measured to quantify protein binding.

Experiment [4] in a line: Microtitre plate assay: biotinylated-4IS heparin binding to immobilized proteins. How it is done:
Alternatively, the unlabelled FHCCP6-8(H384), FHCCP6-8(Y384) and mutant proteins (i.e., K370A, R386A, K387A in the context of the FHCCP6-8(H384) construct) were adsorbed at 1 μg/ml in PBS onto microtitre plates (Nunc Maxisorb, Kastrup, Denmark) and their ligand-binding activities at pH 7.3 were determined using biotinylated-4IS heparin essentially as described in Mahoney et al. (2005) ibid. Plate assays were carried out in 20 mM HEPES, 130 mM NaCl, 0.05% (v/v) Tween-20, pH 7.3 and the level of bound heparin determined as described above for the biotinylated proteins.
In these plate assays all data points were determined in quadruplicate from each of two independent experiments.

B1: FHCCP6-8(H384): recombinant protein of Factor H CCPs 6-8, H384 allotype, with N-terminal non-authentic glycine (SEQ ID NO: 1) (protein, listed as Homo sapiens)
chain: MGTLKPCDYPDIKHGGLYHENMRRPYFPVAVGKYYSYYCDEHFETPSGSYWDHIHCTQDGWSPAVPCLRKCYFPYLENGYNQNHGRKFVQGKSIDVACHPGYALPKAQTTVTCMENGWSPTPRCIRVKTCSKSSIDIENGFISESQYTYALKEKAKYQCKLGYVTADGETSGSITCGKDGWSAQPTCI
modifications: VARIANT (1)...(188) Protein sequence of the FHCCP6-8 (H384) construct
For the molecule B1, the “binding to heparin oligosaccharides relative to the other variant” value in experiment [1] (4- to 18-mers) is on record as “bound better”. Further, in experiment [2], the “binding to HS preparations HSI and HSII” value is listed as “lack of activity”. Also, the “binding to CRP relative to the other variant” value in experiment [3] (biotinylated proteins) was “lower CRP binding”.

B2: FHCCP6-8(Y384): recombinant Factor H CCPs 6-8, Y384 variant obtained by site-directed mutagenesis (SEQ ID NO: 3) (protein, listed as Homo sapiens)
chain: MGTLKPCDYPDIKHGGLYHENMRRPYFPVAVGKYYSYYCDEHFETPSGSYWDHIHCTQDGWSPAVPCLRKCYFPYLENGYNQNYGRKFVQGKSIDVACHPGYALPKAQTTVTCMENGWSPTPRCIRVKTCSKSSIDIENGFISESQYTYALKEKAKYQCKLGYVTADGETSGSITCGKDGWSAQPTCI
modifications: VARIANT (1)...(188) FHCCP6-8 (Y384 allotype of mature Factor H)
For the molecule B2, in experiment [4], the “binding to 4IS heparin relative to FHCCP6-8(H384)” value is reported as “bind less well”. Also, in experiment [1], the “oligosaccharide length giving maximal binding” value is about 12 sugars. For the same molecule, in experiment [2], the “binding to HS preparations HSI and HSII” value is listed as “lack of activity”. For the same molecule, the “binding to CRP relative to the other variant” value in experiment [3] (detection with polyclonal anti-FH antibody, p<0.03) is reported as “bound significantly better”.
